Patent US20260204353A1 (published 2026)

B1: Variant 2 (scFv, V domains shown)
VH: EVQLVESGGGLVQPGGSLRLSCAASGFTFSSYTMSWVRQAPGKGLEWVSYISHGGGDTYYADSVKGRFTISRDNSKNTLYLQMNSLRAEDTAVYYCARHSGYERGYYYVMDYWGQGTLVTVSS
VL: DIVMTQSPDSLAVSLGERATINCKASESVDYYGFSFLNWFQQKPGQPPKLLIYAASNRESGVPDRFSGSGSGTDFTLTISSLQAEDVAVYYCQQSKEVPWTFGQGTKLEIKR
B2: Variant 7 (scFv, V domains shown)
VH: EVKLLESGGGLVQPGGSLRLSCAASGFTFSSYTMSWVRQAPGKGLEWVSYISHGGGDTYYPDSVKGRFTISRDNSKNTLYLQMNSLRAEDTAVYYCARHSGYERGYYYVMDYWGKGTTVTVSS
VL: DIVMTQSPDSLAVSLGERATINCKSSESVDYYGFSFLNWFQQKPGQPPKLLIYAASNRESGVPDRFSGSGSGTDFTLTISSLQAEDVAVYYCQQSKEVPWTFGQGTKLEIK
B3: Variant 5 (scFv, V domains shown)
VH: EVQLVESGGGLVQPGGSLRLSCAASGFTFSSYTMSWVRQAPGKGLEWVSYISHGGGDTYYPDSVKGRFTISRDNSKNTLYLQMNSLRAEDTAVYYCARHSGYERGYYYVMDYWGQGTLVTVSS
VL: DIVMTQSPDSLAVSLGERATINCKASESVDYYGFSFLNWFQQKPGQPPKLLIYAASNRESGVPDRFSGSGSGTDFTLTISSLQAEDVAVYYCQQSKEVPWTFGQGTKLEIKR
B4: Variant 1 (scFv, V domains shown)
VH: EVQLVESGGGLVQPGGSLRLSCAASGFTFSSYTMSWVRQAPGKGLEWVSYISHGGGDTYYADSVKGRFTISRDNSKNTLYLQMNSLRAEDTAVYYCARHSGYERGYYYVMDYWGQGTLVTVSS
VL: DIVMTQSPDSLAVSLGERATINCKSSESVDYYGFSFLNWFQQKPGQPPKLLIYAASNRESGVPDRFSGSGSGTDFTLTISSLQAEDVAVYYCQQSKEVPWTFGQGTKLEIKR
B5: Variant 4 (scFv, V domains shown)
VH: EVQLVESGGGLVQPGGSLRLSCAASGFTFSSYTMSWVRQAPGKGLEWVSYISHGGGDTYYPDSVKGRFTISRDNSKNTLYLQMNSLRAEDTAVYYCARHSGYERGYYYVMDYWGQGTLVTVSS
VL: DIVMTQSPDSLAVSLGERATINCKSSESVDYYGFSFLNWFQQKPGQPPKLLIYAASNRESGVPDRFSGSGSGTDFTLTISSLQAEDVAVYYCQQSKEVPWTFGQGTKLEIKR
B6: Variant 6 (scFv, V domains shown)
VH: EVQLVESGGGLVQPGGSLRLSCAASGFTFSSYTMSWVRQAPGKGLEWVSYISHGGGDTYYPDSVKGRFTISRDNSKNTLYLQMNSLRAEDTAVYYCARHSGYERGYYYVMDYWGQGTLVTVSS
VL: DIQLTQSPDSLSVSLGERATINCKASESVDYYGFSFLNWFQQKPGQPPKLLIYAASNRQSGVPDRFSGSGSGTDFTLTISSLQAEDVAVYFCQQSKEVPWTFGQGTKLEIKR
B7: Variant 3 (scFv, V domains shown)
VH: EVQLVESGGGLVQPGGSLRLSCAASGFTFSSYTMSWVRQAPGKGLEWVSYISHGGGDTYYADSVKGRFTISRDNSKNTLYLQMNSLRAEDTAVYYCARHSGYERGYYYVMDYWGQGTLVTVSS
VL: DIQLTQSPDSLSVSLGERATINCKASESVDYYGFSFLNWFQQKPGQPPKLLIYAASNRQSGVPDRFSGSGSGTDFTLTISSLQAEDVAVYFCQQSKEVPWTFGQGTKLEIKR
B8: Variant 8 (scFv, V domains shown)
VH: EVKLLESGGGLVQPGGSLRLSCAASGFTFSSYTMSWVRQAPGKGLEWVSYISHGGGDTYYPDSVKGRFTISRDNSKNTLYLQMNSLRAEDTAVYYCARHSGYERGYYYVMDYWGKGTTVTVSS
VL: DIVMTQSPDSLAVSLGERATINCKASESVDYYGFSFLNWFQQKPGQPPKLLIYAASNRESGVPDRFSGSGSGTDFTLTISSLQAEDVAVYYCQQSKEVPWTFGQGTKLEIK

Each binder was assayed against T1, - (UniProt Q15116 25-167) (assay: SPR (Biacore T200); range printed).
T1 sequence (Q15116 25-167): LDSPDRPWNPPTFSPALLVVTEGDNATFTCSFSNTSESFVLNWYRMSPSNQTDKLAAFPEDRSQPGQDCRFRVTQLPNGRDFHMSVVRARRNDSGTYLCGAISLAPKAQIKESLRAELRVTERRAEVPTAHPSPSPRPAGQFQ

| Binder | Kd [nM] |
| --- | --- |
| B1 | 2 |

Each binder was assayed against T1, - (assay: SPR (Biacore T200)).

| Binder | Kd [nM] |
| --- | --- |
| B2 | 0.67 |
| B3 | 2.3 |
| B4 | 5.8 |
| B5 | 3.6 |
| B6 | 5.8 |
| B7 | 5.6 |
| B8 | 2.6 |
